Experimental findings from US20110269113A1 (University of Pennsylvania, published 2011) are described below.

Bridges are numbered along the chain shown (N, C = ends).

The target in assay [1] is C5a receptor (C5aR) (human) (UniProt P21730). Kind of assay: cell-based or functional assay.
In assay [2] the target is complement component C3 (native C3) (human, UniProt P01024 23-1663). Kind of assay: cell-based or functional assay.
Sequence of complement component C3 (native C3) (P01024 23-1663 limits assumed): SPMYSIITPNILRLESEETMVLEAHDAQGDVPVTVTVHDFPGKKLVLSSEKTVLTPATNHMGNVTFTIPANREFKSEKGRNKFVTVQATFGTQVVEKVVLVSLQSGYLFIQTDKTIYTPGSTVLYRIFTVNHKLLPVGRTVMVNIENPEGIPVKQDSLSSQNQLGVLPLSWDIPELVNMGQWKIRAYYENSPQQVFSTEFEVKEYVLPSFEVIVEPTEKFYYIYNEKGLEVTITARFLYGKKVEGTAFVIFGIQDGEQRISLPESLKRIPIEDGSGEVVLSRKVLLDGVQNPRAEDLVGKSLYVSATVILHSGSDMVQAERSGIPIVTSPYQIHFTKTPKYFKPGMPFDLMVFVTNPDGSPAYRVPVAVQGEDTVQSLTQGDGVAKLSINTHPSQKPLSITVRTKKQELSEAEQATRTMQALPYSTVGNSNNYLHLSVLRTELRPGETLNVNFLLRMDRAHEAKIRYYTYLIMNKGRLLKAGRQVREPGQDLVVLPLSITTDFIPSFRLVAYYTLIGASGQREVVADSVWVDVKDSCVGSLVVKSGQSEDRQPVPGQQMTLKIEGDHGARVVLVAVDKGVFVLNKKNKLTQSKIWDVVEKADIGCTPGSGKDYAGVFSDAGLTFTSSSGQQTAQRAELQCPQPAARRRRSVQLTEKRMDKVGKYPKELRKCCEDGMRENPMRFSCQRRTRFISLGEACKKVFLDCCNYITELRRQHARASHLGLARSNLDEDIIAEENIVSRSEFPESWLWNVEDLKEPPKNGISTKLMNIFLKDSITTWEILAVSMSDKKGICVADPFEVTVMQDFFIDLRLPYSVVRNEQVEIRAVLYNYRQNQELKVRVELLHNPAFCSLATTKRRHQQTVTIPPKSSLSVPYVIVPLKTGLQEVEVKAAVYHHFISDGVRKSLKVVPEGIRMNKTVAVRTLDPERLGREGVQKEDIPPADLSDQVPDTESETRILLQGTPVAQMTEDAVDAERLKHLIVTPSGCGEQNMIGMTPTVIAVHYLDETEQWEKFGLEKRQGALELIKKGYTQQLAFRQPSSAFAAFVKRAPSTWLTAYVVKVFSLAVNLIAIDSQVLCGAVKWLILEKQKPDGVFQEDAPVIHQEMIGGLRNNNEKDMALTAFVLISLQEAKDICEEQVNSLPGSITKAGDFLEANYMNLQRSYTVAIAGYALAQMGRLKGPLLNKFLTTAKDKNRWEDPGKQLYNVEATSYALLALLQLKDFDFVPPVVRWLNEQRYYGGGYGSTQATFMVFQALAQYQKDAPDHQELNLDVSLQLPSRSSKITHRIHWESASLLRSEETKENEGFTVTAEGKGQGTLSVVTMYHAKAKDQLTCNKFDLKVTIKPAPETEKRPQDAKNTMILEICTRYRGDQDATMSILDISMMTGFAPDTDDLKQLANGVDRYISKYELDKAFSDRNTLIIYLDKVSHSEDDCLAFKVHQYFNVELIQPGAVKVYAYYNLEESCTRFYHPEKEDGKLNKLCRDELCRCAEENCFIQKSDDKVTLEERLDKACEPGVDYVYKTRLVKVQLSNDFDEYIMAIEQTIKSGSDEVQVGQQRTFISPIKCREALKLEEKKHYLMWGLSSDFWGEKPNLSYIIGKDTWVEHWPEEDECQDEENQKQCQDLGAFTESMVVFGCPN

Sequence of C5a receptor (C5aR) (human) (P21730 whole entry): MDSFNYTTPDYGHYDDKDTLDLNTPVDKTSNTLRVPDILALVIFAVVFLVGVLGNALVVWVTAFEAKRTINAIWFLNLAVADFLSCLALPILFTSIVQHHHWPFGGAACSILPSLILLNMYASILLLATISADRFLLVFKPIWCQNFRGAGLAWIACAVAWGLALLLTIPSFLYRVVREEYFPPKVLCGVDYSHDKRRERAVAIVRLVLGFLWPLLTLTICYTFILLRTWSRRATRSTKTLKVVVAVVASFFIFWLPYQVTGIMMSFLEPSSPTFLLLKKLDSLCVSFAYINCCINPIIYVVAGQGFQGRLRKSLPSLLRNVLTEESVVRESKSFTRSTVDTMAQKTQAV

As to “small cyclic hexapeptide (AcF-[OPdChaWR]), selective C5aR antagonist”, in assay [1], the TF mRNA expression in PMNs (real time RT-PCR) after C5aR antagonism (fold decrease) stood at 2.14; the modified prothrombin time (mPT) of PMN supernatants; healthy serum preincubated with filter fibers, with C5aR antagonist worked out at 29.1 s; the modified prothrombin time (mPT) of PMN supernatants; predialysis ESRD serum preincubated with filter fibers, with C5aR antagonist was 26.1 s; the modified prothrombin time (mPT) of supernatants of PMNs preincubated with C5aR antagonist (10 µM-30 min) turned out to be 31.6 s.

B1: Compstatin, a 13-residue cyclic peptide (Ac-I[CVWQDWGAHRTC]TNH2) (peptide)
peptide: Ac-ICVWQDWGAHRTCT-NH2
modifications: disulfide 2-13
SMILES: CC[C@H](C)[C@H](NC(C)=O)C(=O)N[C@H]1CSSC[C@@H](C(=O)N[C@H](C(N)=O)[C@@H](C)O)NC(=O)[C@H]([C@@H](C)O)NC(=O)[C@H](CCCNC(=N)N)NC(=O)[C@H](Cc2c[nH]cn2)NC(=O)[C@H](C)NC(=O)CNC(=O)[C@H](Cc2c[nH]c3ccccc23)NC(=O)[C@H](CC(=O)O)NC(=O)[C@H](CCC(N)=O)NC(=O)[C@H](Cc2c[nH]c3ccccc23)NC(=O)[C@H](C(C)C)NC1=O
B1: in assay [2], the “TF mRNA expression in PMNs (real time RT-PCR) after Compstatin addition” value came to 2.79 fold decrease and the “intracellular TF protein in PMNs, MFI fold expression (flow cytometry); fiber-activated healthy serum blocked with Compstatin” value was 1.01 MFI fold expression.
